Laboratory results reported in patent publication US20260286322A1, “PROTEIN TYROSINE P[…] DOMAIN PEPTIDE DIMER FOR NERVOUS SYSTEM REPAIR” (NervGen Pharma Corp., priority 2023, published 2026).
Ends that are not written are not given here.

How the values were obtained:
[1] = In vitro stability in human plasma; format: in vitro ADME; settings: after 30 minutes of incubation, 37° C., 1.6 μM
Experimental: (§1) Stability of Compound 7 (human variant) in physiological buffer (Hanks Balanced Salt Solution, HBSS) and in plasma was evaluated in comparison with Compound 3.
(§2) Compound stability was defined as % recovery of the compound after 5 min, 15 min, and 30 min of incubation in the presence of corresponding plasma.
(§3) 200 μL of 1.6 μM Compound 3 and Compound 7 solutions were incubated in the matrix (Hank's Balanced Salt Solution or plasma) at 37° C. for 0, 5, 15, or 30 minutes. The incubation was followed by addition of 200 μL acetonitrile, vortexing and subsequent acidification with 45 μL of pure acetic acid. After additional vortexing, the resulting mixture was centrifuged for 5 min at 14,000 rpm and the supernatant was collected for analysis.
(§4) Determination of the Compound 3 or Compound 7 levels in the supernatant samples prepared as described above was performed using an LC-MS/MS method as follows: 40 μL of 5 μM Compound 7 in 10% acetic acid aqueous solution was added to 160 μL of the supernatant. […]
(§5) Percentages of Compound 3 and Compound 7 recovery after 0 minutes (at the start of the experiment), 5 minutes, 15 minutes, and 30 minutes incubation time points were calculated by dividing the corresponding peak areas by the peak area obtained from the samples prepared with no incubation (0 minutes of incubation time). […]

[2] = In vitro stability in physiological buffer (Hanks Balanced Salt Solution, HBSS); format: physicochemical; settings: 30 minutes incubation, 37° C., 1.6 μM
Experimental: as §1, §2, §3, §4, §5

[3] = Self-assembly by negative stain transmission electron microscopy; format: physicochemical; settings: for colloidal structures from self-assembly in isotonic saline (TEM): 20 mg/mL in 0.9% (w/v) sodium chloride; for colloidal structures from self-assembly in water (TEM): 20 mg/mL in sterile water
Experimental: The patterns of self-assembly of Compound 7 and Compound 3 were analyzed by negative stain transmission electron microscopy.
Compound 3 and Compound 7 were dissolved in sterile water or in 0.9% (w/v) sodium chloride in sterile water to obtain a 20 mg/mL solution. Formvar/carbon coated grids were exposed to […] drops of the Compound 3 or Compound 7 solutions for approximately 1 minute, blotted and then exposed to […] drops of sterile water for 10 seconds, blotted again and then stained with 2% (w/v) aqueous uranyl acetate for 30 seconds, The stained samples were exposed to […] drops of sterile water for 10 seconds and blotted dry prior to examination by transmission electron microscopy.

[4] = In vitro stability in rat plasma; format: in vitro ADME; settings: after 30 minutes of incubation, 37° C., 1.6 μM
Experimental: as §1, §2, §3, §4, §5

[5] = In vitro stability in dog plasma; format: in vitro ADME; settings: after 30 minutes of incubation, 37° C., 1.6 μM
Experimental: as §1, §2, §3, §4, §5

Row | Substance | recovery rate in human plasma [1] | % recovery in HBSS [2] | colloidal structures from self-assembly in isotonic saline (TEM) [3] | colloidal structures from self-assembly in water (TEM) [3] | recovery rate in rat plasma [4] | recovery rate in dog plasma [5]
1 | TAT-Cys-PTPRS (GRKKRRQRRRCDMAEHTERLKANDSLKLSQEYESI) [Compound 3] | low stability | about 42% | amyloid-like fibrillar meshwork | rod-shaped nanostructures | low stability | low stability
2 | TAT-Cys-human PTPRS wedge domain homodimer (GRKKRRQRRRCDMAEHTERLKANDSLKLSQEYESI; also: disulfide homodimer) [Compound 7] | 99% | 90% | larger-in-size helical colloidal particles | rod-shaped nanostructures | 92% | 100%
